{"source": "paper PMC2885016", "biological_target": "human P-TEFb (Cdk9 (1-345)•Cyclin T1 (1-266)) (human) (UniProt P50750)", "sequence (P50750 1-345, chain 1 of 2)": "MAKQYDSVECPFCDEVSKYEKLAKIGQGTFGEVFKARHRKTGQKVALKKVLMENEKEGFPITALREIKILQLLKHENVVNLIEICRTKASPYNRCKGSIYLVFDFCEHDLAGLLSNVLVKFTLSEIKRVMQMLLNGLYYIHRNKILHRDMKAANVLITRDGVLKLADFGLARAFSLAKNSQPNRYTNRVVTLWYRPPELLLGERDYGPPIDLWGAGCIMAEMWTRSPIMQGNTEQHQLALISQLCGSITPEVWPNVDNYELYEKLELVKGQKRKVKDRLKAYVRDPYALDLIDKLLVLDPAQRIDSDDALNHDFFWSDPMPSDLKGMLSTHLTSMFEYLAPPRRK", "sequence (O60563 1-266, chain 2 of 2, further chain)": "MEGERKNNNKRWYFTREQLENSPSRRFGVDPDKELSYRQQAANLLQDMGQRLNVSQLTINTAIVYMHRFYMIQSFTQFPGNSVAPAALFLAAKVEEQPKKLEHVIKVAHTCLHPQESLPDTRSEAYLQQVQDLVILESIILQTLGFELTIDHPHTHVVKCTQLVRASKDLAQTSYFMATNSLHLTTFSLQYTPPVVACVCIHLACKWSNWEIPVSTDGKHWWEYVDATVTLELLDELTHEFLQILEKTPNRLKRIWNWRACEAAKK", "test": "SDS-PAGE of dissolved crystals"}
{"substance": "HIV-1 Tat (1-86) (from UniProt P04608 1-86) (natural protein)", "values": [{"measurement": "stoichiometry N", "result": 1}]}
